B1: 1 (protein)
chain: LDNGLARTPTMGWLHWERFMCNLDCQEEPDSCISEKLFMEMAELMVSEGWKDAGYEYLCIDDCWMAPQRDSEGRLQADPQRFPHGIRQLANYVHSKGLKLGIYADVGNKTCAGFPGSFGYYDIDAQTFADWGVDLLKFDGCYCDSLENLADGYKHMSLALNRTGRSIVYSCEWPLYMWPFQKPNYTEIRQYCNHWRNFADIDDSWKSIKSILDWTSFNQERIVDVAGPGGWNDPDMLVIGNFGLSWNQQVTQMALWAIMAAPLFMSNDLRHISPQAKALLQDKDVIAINQDPLGKQGYQLRQGDNFEVWERPLSGLAWAVAMINRQEIGGPRSYTISVASLGKGVACNPACFITQLLPVKRKLGFYEWTSRLRSHINPTGTVLLQLENTMQMSLKDLL
modifications: Synthetic Polypeptide sequence of Variant No. 1 of mature Human GLA
B2: 125 (protein)
chain: LDNGLARTPTMGWLHWERFMCNLDCQEEPDSCISEKLFMEMAELMVSEGWKDAGYEYLCIDDCWMAPQRDSEGRLQADPQRFPHGIRQLANYVHSKGLKLGIYADVGNKTCAGFPGSFGYYDIDAQTFADWGVDLLKFDGCYCDSLENLADGYKHMSLALNRTGRSIVYSCEWPLYMWPFQKPNYTEIRQYCNHWRNFADIDDSWKSIKSILDWTSFNQERIVDVAGPGGWNDPDMLVIGNFGLSWNQQVTQMALWAIMAAPLFMSNDLRHISPQAKALLQDKDVIAINQDPLGKQGYQLRQGDNFEVWERPLSGLAWAVAIINRQEIGGPRSYTIAVASLGKGVACNPACFITQLLPVKRKLGFYEWTSRLRSHINPTGTVLLQLENTMQMSKDLLL
modifications: Synthetic Polypeptide sequence of Variant No. 125 of mature Human GLA
B3: 127 (protein)
chain: LDNGLARTPTMGWLHWERFMCNLDCQEEPDSCISEKLFMEMAELMVSEGWKDAGYEYLCIDDCWMAPQRDSEGRLQADPQRFPHGIRQLANYVHSKGLKLGIYADVGNKTCAGFPGSFGYYDIDAQTFADWGVDLLKFDGCYCDSLENLADGYKHMSLALNRTGRSIVYSCEWPLYMWPFQKPNYTEIRQYCNHWRNFADIDDSWKSIKSILDWTSFNQERIVDVAGPGGWNDPDMLVIGNFGLSWNQQVTQMALWAIMAAPLFMSNDLRHISPQAKALLQDKDVIAINQDPLGKQGYQLRQGDNFEVWERPLSGLAWAVAMINRQEIGGPRSYTIAVASLGKGVACNPACFITQLLPVKRKLGFYEWTSRLRSHINPTGTVLLQLENTRQMSKDLLL
modifications: Synthetic Polypeptide sequence of Variant No. 127 of mature Human GLA
B4: 126 (protein)
chain: LDNGLARTPTMGWLHWERFMCNLDCQEEPDSCISEKLFMEMAELMVSEGWKDAGYEYLCIDDCWMAPQRDSEGRLQADPQRFPHGIRQLANYVHSKGLKLGIYADVGNKTCAGFPGSFGYYDIDAQTFADWGVDLLKFDGCYCDSLENLADGYKHMSLALNRTGRSIVYSCEWPLYMWPFQKPNYTEIRQYCNHWRNFADIDDSWKSIKSILDWTSFNQERIVDVAGPGGWNDPDMLVIGNFGLSWNQQVTQMALWAIMAAPLFMSNDLRHISPQAKALLQDKDVIAINQDPLGKQGYQLRQGDNFEVWERPLSGLAWAVAMINRQEIGGPRSYTIAVASLGKGVACNPACFITQLLPVKRKLGFYEWTSRLRSHINPTGTVLLQLENTDQMSKDLLL
modifications: Synthetic Polypeptide sequence of Variant No. 126 of mature Human GLA
B5: 2 (protein)
chain: LDNGLARTPTMGWLHWERFMCNLDCQEEPDSCISEKLFMEMADLMVSEGWKDAGYEYLCIDDCWMAPQRDSEGRLQADPQRFPHGIRQLANYVHSKGLKLGIYADVGNKTCAGFPGSFGYYDIDAQTFADWGVDLLKFDGCYCDSLENLADGYKHMSLALNRTGRSIVYSCEWPLYMWPFQKPNYTEIRQYCNHWRNFADIDDSWKSIKSILDWTSFNQERIVDVAGPGGWNDPDMLVIGNFGLSWNQQVTQMALWAIMAAPLFMSNDLRHISPQAKALLQDKDVIAINQDPLGKQGYQLRQGDNFEVWERPLSGLAWAVAMINRQEIGGPRSYTIAVASLGKGVACNPACFITQLLPVKRKLGFYEWTSRLRSHINPTGTVLLQLENTMQMSLKDLL
modifications: Synthetic Polypeptide sequence of Variant No. 2 of mature Human GLA
B6: 124 (protein)
chain: LDNGLARTPTMGWLHWERFMCNLDCQEEPDSCISEKLFMEMAELMVSEGWKDAGYEYLCIDDCWMAPQRDSEGRLQADPQRFPHGIRQLANYVHSKGLKLGIYADVGNKTCAGFPGSFGYYDIDAQTFADWGVDLLKFDGCYCDSLENLADGYKHMSLALNRTGRSIVYSCEWPLYMWPFQKPNYTEIRQYCNHWRNFADIDDSWKSIKSILDWTSFNQERIVDVAGPGGWNDPDMLVIGNFGLSWNQQVTQFALWAIMAAPLFMSNDLRHISPQAKALLQDKDVIAINQDPLGKQGYQLRQGDNFEVWERPLSGLAWAVAMINRQEIGGPRSYTIAVASLGKGVACNPACFITQLLPVKRKLGFYEWTSRLRSHINPTGTVLLQLENTMQMSKDLLL
modifications: Synthetic Polypeptide sequence of Variant No. 124 of mature Human GLA
B7: 128 (protein)
chain: LDNGLARTPTMGWLHWERFMCNLDCQEEPDSCISEKLFMEMAELMVSEGWKDAGYEYLCIDDCWMAPQRDSEGRLQADPQRFPHGIRQLANYVHSKGLKLGIYADVGNKTCAGFPGSFGYYDIDAQTFADWGVDLLKFDGCYCDSLENLADGYKHMSLALNRTGRSIVYSCEWPLYMWPFQKPNYTEIRQYCNHWRNFADIDDSWKSIKSILDWTSFNQERIVDVAGPGGWNDPDMLVIGNFGLSWNQQVTQMALWAIMAAPLFMSNDLRHISPQAKALLQDKDVIAINQDPLGKQGYQLRQGDNFEVWERPLSGLAWAVAMINRQEIGGPRSYTIAVASLGKGVACNPACFITQLLPVKRKLGFYEWTSRLRSHINPTGTVLLQLENTTQMSKDLLL
modifications: Synthetic Polypeptide sequence of Variant No. 128 of mature Human GLA
B8: 123 (protein)
chain: LDNGLARTPTMGWLHWERFDCNLDCQEEPDSCISEKLFMEMAELMVSEGWKDAGYEYLCIDDCWMAPQRDSEGRLQADPQRFPHGIRQLANYVHSKGLKLGIYADVGNKTCAGFPGSFGYYDIDAQTFADWGVDLLKFDGCYCDSLENLADGYKHMSLALNRTGRSIVYSCEWPLYMWPFQKPNYTEIRQYCNHWRNFADIDDSWKSIKSILDWTSFNQERIVDVAGPGGWNDPDMLVIGNFGLSWNQQVTQMALWAIMAAPLFMSNDLRHISPQAKALLQDKDVIAINQDPLGKQGYQLRKGDNFEVWERPLSGLAWAVAMINRQEIGGPRSYTIAVASLGKGVACNPACFITQLLPVKRKLGFYEWTSRLRSHINPTGTVLLQLENTMQMSKDLLL
modifications: Synthetic Polypeptide sequence of Variant No. 123 of mature Human GLA

Assays:
Assay type in all cases: biochemical
Conditions in all cases: activity of the variant/activity of WT GLA (SEQ ID NO: 5), yeast supernatant
[1] = HTP-analysis of supernatants pretreated with base (MUGal hydrolysis)
Method in brief: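 Fluorescence of released 4-MU (Ex 355 nm, Em 448 nm) after carbonate quench reports MUGal hydrolysis by GLA variants secreted from INVSc1 yeast. Before the acidic (pH 4.3-4.8) 30-180 min reaction at 37° C, supernatants had been pre-incubated at pH 7.0-9.7 for 1-18 h at 37° C.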

[2] = HTP-analysis of yeast culture supernatants, no challenge (MUGal hydrolysis)
Method in brief: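 GLA variants were expressed in INVSc1 yeast grown in SD-Ura broth with glucose at 30° C., and culture supernatants were collected after 66-84 h. Supernatant was mixed with McIlvaine buffer pH 4.8 and MUGal (2 mM stock) in 50 mM citrate, 200 mM KCl, pH 4.6, incubated at 37° C. for 30-180 minutes, then quenched with sodium carbonate.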

[3] = HTP-analysis of supernatants pretreated with acid (MUGal hydrolysis)
Method in brief: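 Supernatants from INVSc1 yeast secreting GLA variants were challenged at 37° C. for 1-3 h in McIlvaine buffer at pH 3.3-4.3. Residual activity was then measured on 4 mM MUGal substrate stock at pH 4.8 with citrate buffer pH 4.3, over 30-180 min at 37° C. Reactions were quenched with sodium carbonate and read by fluorescence (Ex 355/Em 448 nm).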

Molecule	Relative Activity of GLA Variants After Challenge at pH 7.0 [1]	Relative Activity of GLA Variants After No Challenge (NC) [2]	Relative Activity of GLA Variants After Challenge at pH 4.3 [3]	Relative Activity of GLA Variants After Challenge at pH 7.1 [1]	Relative Activity of GLA Variants After Challenge at pH 4.2 [3]
B1	+ (+ = 0.5 to 1.5 relative activity over WT GLA (SEQ ID NO: 5))	+ (+ = 0.5 to 1.5 relative activity over WT GLA (SEQ ID NO: 5))	+ (+ = 0.5 to 1.5 relative activity over WT GLA (SEQ ID NO: 5))	–	–
B2	–	+ (+ = 0.5 to 1.5 relative activity over WT GLA (SEQ ID NO: 5))	–	+ (+ = 0.5 to 1.5 relative activity over WT GLA (SEQ ID NO: 5))	+ (+ = 0.5 to 1.5 relative activity over WT GLA (SEQ ID NO: 5))
B3	–	++ (++ = >1.5 to 2.5 relative activity over WT GLA (SEQ ID NO: 5))	–	++ (++ = >1.5 to 2.5 relative activity over WT GLA (SEQ ID NO: 5))	++ (++ = >1.5 to 2.5 relative activity over WT GLA (SEQ ID NO: 5))
B4	–	+++ (+++ = >2.5 relative activity over WT GLA (SEQ ID NO: 5))	–	+++ (+++ = >2.5 relative activity over WT GLA (SEQ ID NO: 5))	+++ (+++ = >2.5 relative activity over WT GLA (SEQ ID NO: 5))
B5	+ (+ = 0.5 to 1.5 relative activity over WT GLA (SEQ ID NO: 5))	+ (+ = 0.5 to 1.5 relative activity over WT GLA (SEQ ID NO: 5))	+ (+ = 0.5 to 1.5 relative activity over WT GLA (SEQ ID NO: 5))	–	–
B6	–	++ (++ = >1.5 to 2.5 relative activity over WT GLA (SEQ ID NO: 5))	–	+ (+ = 0.5 to 1.5 relative activity over WT GLA (SEQ ID NO: 5))	++ (++ = >1.5 to 2.5 relative activity over WT GLA (SEQ ID NO: 5))
B7	–	+ (+ = 0.5 to 1.5 relative activity over WT GLA (SEQ ID NO: 5))	–	+ (+ = 0.5 to 1.5 relative activity over WT GLA (SEQ ID NO: 5))	+ (+ = 0.5 to 1.5 relative activity over WT GLA (SEQ ID NO: 5))
B8	–	− (− = <0.5 relative activity to WT GLA (SEQ ID NO: 5))	–	− (− = <0.5 relative activity to WT GLA (SEQ ID NO: 5))	+ (+ = 0.5 to 1.5 relative activity over WT GLA (SEQ ID NO: 5))

Source: US11278600B2, “Human alpha-galactosidase variants” (Codexis, Inc., priority 2014, dated 2022)
